Data from patent publication US5763571A, “Inhibiting protein interactions” (The General Hospital Corporation, priority 1995, dated 1998).

Tests used:
GAP = target: T1, GAP (Homo sapiens, UniProt P20936); conditions: Schaber et al. 1989; cited from earlier work
T1 sequence (P20936 1-1047): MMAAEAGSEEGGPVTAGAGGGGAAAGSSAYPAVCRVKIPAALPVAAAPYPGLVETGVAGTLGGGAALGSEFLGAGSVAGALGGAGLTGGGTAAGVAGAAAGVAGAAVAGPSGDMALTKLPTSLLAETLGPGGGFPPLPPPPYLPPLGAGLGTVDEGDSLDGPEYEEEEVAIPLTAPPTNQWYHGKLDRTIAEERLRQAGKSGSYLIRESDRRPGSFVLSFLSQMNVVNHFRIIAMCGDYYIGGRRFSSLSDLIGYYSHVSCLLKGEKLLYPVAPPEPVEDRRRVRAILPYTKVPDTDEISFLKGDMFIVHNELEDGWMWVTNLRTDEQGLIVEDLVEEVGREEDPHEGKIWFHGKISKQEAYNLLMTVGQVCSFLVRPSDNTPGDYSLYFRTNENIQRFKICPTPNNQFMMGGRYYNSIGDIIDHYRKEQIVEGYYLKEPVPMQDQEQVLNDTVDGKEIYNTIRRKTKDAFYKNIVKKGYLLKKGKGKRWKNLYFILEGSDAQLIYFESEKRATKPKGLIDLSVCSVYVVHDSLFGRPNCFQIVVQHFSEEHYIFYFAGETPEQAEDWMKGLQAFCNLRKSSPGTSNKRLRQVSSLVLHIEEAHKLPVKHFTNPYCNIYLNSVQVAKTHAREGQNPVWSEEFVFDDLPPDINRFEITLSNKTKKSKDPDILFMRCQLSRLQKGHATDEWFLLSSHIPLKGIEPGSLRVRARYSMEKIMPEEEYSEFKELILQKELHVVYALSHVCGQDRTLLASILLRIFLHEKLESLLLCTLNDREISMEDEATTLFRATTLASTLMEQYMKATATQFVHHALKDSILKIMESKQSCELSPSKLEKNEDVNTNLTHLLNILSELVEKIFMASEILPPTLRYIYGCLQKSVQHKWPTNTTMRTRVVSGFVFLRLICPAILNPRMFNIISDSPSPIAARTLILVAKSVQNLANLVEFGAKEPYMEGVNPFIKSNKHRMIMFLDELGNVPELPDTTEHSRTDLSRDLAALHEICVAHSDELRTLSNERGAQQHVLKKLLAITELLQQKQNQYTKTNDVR

[1] = target: T2, complex formation between Ras-GTP and GST-Raf(1-257) (Homo sapiens, UniProt P01112+P04049); assay: Inhibition of Ras/Raf co-precipitation by synthetic peptides (contact epitope scanning); format: binding
T2 construct: 6xHis (6XH) (C); made in house; host or cells: E. coli

Ras-GTP = target: T3, Ras-GTP (Homo sapiens, UniProt P01112); assay: Comparative co-precipitation of Ras-GTP-γ-32P by GST-Raf proteins; format: binding; conditions: 10 pmol GST-Raf protein, single concentration
T3 construct: made in house; host or cells: E. coli

GTPγS-loaded V12GrasH = assay: In vitro direct binding of Ras to immobilized GST-Raf (immunoblot); conditions: immobilized on glutathione agarose, 6 hours 4° C., pan-Ras immunoblot
Method: In vitro direct binding experiments were carried out as follows. […] After 6 hours of tumbling at 4° C., the glutathione agarose beads were washed and analyzed for the binding of Ras peptide by sodium dodecyl sulfate-polyacrylamide gel electrophoresis (SDS-PAGE), followed by immunoblotting using a pan-Ras monoclonal antibody-2 (oncogene Science).
The DNA sequences encoding Raf1 amino acid residues 1-257 were generated by the polymerase chain reaction (PCR), using as template the plasmids RSV-C4 and RSV-PM17 (Bruder, J. T., Heidecker, G. & Rapp, U.R. Genes Dev. 6, 545-556 (1992)), which encode the wild-type and C168 →S mutant sequences, respectively. The c-DNA were inserted into pGEX-KG (Guan, K. L. and Dixon J. E., Anal Biochem. 192, 262-267 (1991)) at the EcoR1 and Sall sites, and sequenced to confirm the mutation and proper in-frame insertion. […] About 50% of the recombinant peptides were recovered as full-length fusion proteins. […] The beads were washed 4×and resuspended in buffer A as a 50% suspension. […] Following transfer to polyvinylidene difluoride (PVDF) membrane, the membrane was immunoblotted using pan-Ras monoclonal antibody-2 (Oncogene Science) and detected using the enhanced chemiluminescence technique (Amersham).

[2] = target: T4, Ras-GAP stimulation of c-rasH GTPase (Homo sapiens, UniProt P01112); assay: Inhibition of Ras-GAP stimulation of c-rasH GTPase; format: biochemical; conditions: added at a concentration nearly equal to Ras-GAP
T4 construct: made in house; host or cells: Sf9 (baculovirus)
Method: The GTPase activity was estimated from the γ^32 P-GTP remaining bound to c-rasH after filtration.
In these experiments, baculoviral recombinant c-rasH was expressed and purified from the membrane pellet of Sf9 cells as described for the baculoviral membrane V12GrasH above. The c-rasH was charged with γ^32 P-GTP by combining 0.1 ml of c-rasH (approximately 10 μg/ml) in Ras storage buffer with 0.3 ml of 60 mM TrisCl, pH 7.5, 5 mM EDTA, 0.7 mg/ml BSA, 1.5 mM DTT, 4 mM ATP, 0.142 μM γ^32 P-GTP (4-6 ×10^5 cpm/pmole) on ice. After 1 hour, 50 μl of 135 mM MgCl2 was added. Loading of c-rasH with α^32 P-GTP was carried out under the same conditions; the α^32 P-GTP-c-rasHwas separated from unbound nucleotide by gel filtration (PD-10) in 25 mM TrisCl, pH 7.5, 5 mM MgCl2, 3 mM ATP, 1 mM DTT, and stored on ice. Baculoviral recombinant, full-length human GAP protein was extracted from Sf9 cells by homogenization in 25 mM TrisCl pH 7.5, 1 mM EGTA, 5 mM MgCl2, 1 mM DTT (GAP buffer) and protease inhibitors. […] GAP was detected using a radiolabeled Ras peptide in a filter binding assay. […] The mixture was filtered through a BA85 nitrocellulose membrane, washed 3×with 4 ml of stop solution, and the filters analyzed for retained ^32 P-labeled nucleotide.

Substance	Competition of Ras/GAP interaction (in words), previous study (GAP)	Complex formation with Ras-GTP-γ-32P by co-precipitation (in words) (Ras-GTP)	other results
31-43: Ras peptide of a previous study (Schaber et al.) (EYDPTIEDSYRKQ; UniProt P01112 31-43, looked up, fragment)	did not compete at all	–	–
96-112 peptide: acetylated, C-terminal amide peptide of c-Raf-1 residues 96-112 (Ac-CAVFRLLHEHKGKKARL-NH2)	–	–	Inhibition of Ras-Raf association by peptide (in words) [1]: little inhibition
GST-Raf(1-131): GST fusion of c-Raf-1 residues 1-131, unstable	–	complexed as well with Ras-GTP	–
GST-Raf(1-257, C168 →S): mutant fragment in which serine replaces cysteine at position 168	–	–	Binding of GTPγS-V12GrasH (in words) (GTPγS-loaded V12GrasH): significantly lower amounts of Ras are retained; Inhibition of Ras-GAP stimulation of Ras GTPase (in words) [2]: significantly less inhibition
GST-Raf(51-149): GST fusion of c-Raf-1 residues 51-149 (SEQ ID NO:7)	–	complexed as well with Ras-GTP	–
Ras 23-37: Ras peptide of a previous study (Schaber et al.) (LIQNHFVDEYDPTIE; UniProt P01112 23-37, looked up, fragment)	did not compete at all	–	–
